Target: HIV-1 YU-2 gp120 wild type (HIV-1 (isolate YU-2), UniProt P35961 32-498)
Test: SPR

Binder: CNLHWCQLRCKSLGLLGKCAGSFCACV (designed binder, C-terminal amide (-NH2); oxidized peptide) [[F5W]CD4F23]
- binding result: binds

Reference: paper PMC3088361 (Biochemistry, 2011)
